Assay [1] addresses T1, extracellular domain (ECD) of human TrkA protein, N-terminal flag tag and C-terminal His tag (PHA) (human, UniProt P04629 33-423).
T1 construct: Made in 293-F cells and purified by IMAC; also called TrkA ECD protein; TrkA (ECD); not shown: flag tag at the N-terminus (after the signal peptide); His tag at the C-terminus
Briefly: indirect ELISA on coated PHA (human TrkA ECD, 1 ug/mL), anti-mouse IgG-HRP, OD450. Here is the method: Hybridoma supernatants were initially screened with human TrkA by indirect ELISA. Briefly, purified PHA was diluted to a final concentration of 1 μg/mL in PBS buffer. 100 μL of the diluted antigen was added to each well of a 96-well plate, and incubated at 4° C. overnight. The plates were washed with PBST (PBS comprising 0.05% Tween-20, pH 7.4) for three times, then 200 μl/well of 2% bovine serum albumin (BSA) diluted in PBST was added and incubated at room temperature for 2 hours for blocking. The blocking solution was removed, and the plate was washed 3 times with 300 μl PBST. The diluted solutions of primary and secondary antibodies, along with substrate solution was prepared. 100 μl of diluted primary antibody was pipetted in each well and was incubated for 1 hour at room temperature. The content in the wells was removed and washed for 3 times with 300 μl PBST buffer. PBS was removed from the plates. 100 μl of diluted Peroxidase-AffiniPure Goat Anti-Mouse IgG was added in each well and incubated for 1 hour at 37° C. The content in the wells was removed and the wells were washed for 3 times with 300 μl PBST. 100 μl of TMB substrate solution was added to the wells. After sufficient color development, 100 μl of stop solution was added to the wells to terminate the reaction. Read the absorbance (OD: 450) of each well with a microplate reader and the data were analyzed.
In general terms: In an ELISA, binding on a coated surface is turned into a signal by an enzyme label.

The target of assay [2] is T2, human TrkA on CellSensor TrkA-NFAT-bla CHO-K1 cells (human, UniProt P04629 33-796). Briefly: cell-based or functional assay.
T2 sequence (P04629 33-796 limits assumed, form in doubt): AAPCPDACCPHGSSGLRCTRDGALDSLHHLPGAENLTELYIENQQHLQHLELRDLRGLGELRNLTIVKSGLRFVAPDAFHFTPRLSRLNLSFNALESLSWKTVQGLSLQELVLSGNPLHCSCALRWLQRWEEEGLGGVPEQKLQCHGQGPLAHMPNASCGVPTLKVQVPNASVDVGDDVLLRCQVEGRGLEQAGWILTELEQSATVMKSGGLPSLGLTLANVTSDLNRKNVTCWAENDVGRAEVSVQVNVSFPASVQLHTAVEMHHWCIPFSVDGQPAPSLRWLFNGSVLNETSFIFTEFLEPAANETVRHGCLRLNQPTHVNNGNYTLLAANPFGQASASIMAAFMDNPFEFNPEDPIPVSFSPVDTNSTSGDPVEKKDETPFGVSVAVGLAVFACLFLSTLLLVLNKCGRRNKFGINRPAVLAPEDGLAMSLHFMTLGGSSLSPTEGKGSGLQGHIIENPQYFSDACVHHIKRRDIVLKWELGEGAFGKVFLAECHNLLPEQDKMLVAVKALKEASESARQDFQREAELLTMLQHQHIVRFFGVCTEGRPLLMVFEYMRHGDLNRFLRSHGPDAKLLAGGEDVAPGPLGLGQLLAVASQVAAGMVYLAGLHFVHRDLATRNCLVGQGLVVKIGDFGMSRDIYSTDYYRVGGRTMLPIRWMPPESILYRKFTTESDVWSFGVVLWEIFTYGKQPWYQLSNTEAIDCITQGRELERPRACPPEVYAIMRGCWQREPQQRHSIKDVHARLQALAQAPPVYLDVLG
Assay [3] concerns the target T2, human TrkA on CellSensor TrkA-NFAT-bla …. The assay can be described thus: FACS on CellSensor TrkA-NFAT-bla CHO-K1 cells (human TrkA), APC goat anti-mouse IgG; y axis without label. Here is the method: (§1) The ELISA-positive antibody producing clones were further verified by fluorescence-activated cell sorting (FACS) using a conventional method. Briefly, CellSensor® TrkA-NFAT-bla CHO-K1 cells (cells overexpressing human TrkA) were stained with anti-TrkA antibody in U-bottom 96-well plates. The cells were resuspended to 2×10⁶ cells/ml in ice cold PBS. The diluted solutions of primary and secondary antibodies were prepared, and 100 μl of the diluted primary antibody was added in each well, and incubated for 1 hours at 4° C. in the dark. The cells were washed for 2 times by centrifugation at 2500 rpm for 3 min and resuspended in ice cold PBS. The APC Goat anti-Mouse IgG was diluted in cold PBS at the […] and then the cells were resuspended in 100 μl of this solution. The cells were washed for 2 times by centrifugation at 2500 rpm for 3 min and resuspended in 100 μl ice cold PBS. The cell suspension was stored immediately at 4° C. in the dark. The cells were analyzed on the flow cytometer as soon as possible.

Assay [4] shares this target. Briefly: cell-based or functional assay. This is another data set of the same source.
For assay [5] the target is unchanged. The assay can be described thus: FACS on CellSensor TrkA-NFAT-bla CHO-K1 cells (human TrkA), APC goat anti-mouse IgG. The procedure:
as §1

For assay [6], the target named is T1, extracellular domain (ECD) of human …. The assay can be described thus: BLI (Octet Red384), His-tagged TrkA ECD captured on Anti-Penta-HIS (HIS1K) biosensor, pAb01 as second antibody (90 s) after PHD48. A general note: In BLI a coated tip is dipped into the sample, and binding shifts an interference pattern.
Method: A bio-layer interferometry (BLI) method-based competition assay was performed on Octet Red384. Briefly, Anti-Penta-HIS (HIS1K) Biosensor (Fortebio) was put in PBS with 0.1% w/v bovine serum albumin and 0.05% Tween-20 (assay buffer) for a minimum of 10 min in the pre-wetting plate. The TrKA ECD protein at 100 nM in assay buffer was captured on the sensor to obtain a capture level of 0.3˜1 nm. The loaded biosensors were then equilibrated with an assay buffer for a minimum of 30s followed by binding of the first antibody for 90s. After the second equilibration, the second antibody was loaded for 90s.
For assay [7], the target named is T2, human TrkA on CellSensor TrkA-NFAT-bla …. The assay can be described thus: FACS on cells expressing human TrkA (FIG. 5A).
The target of assay [8] is T1, extracellular domain (ECD) of human …. Briefly: BLI (Octet Red384), antibody captured on anti-human Fc AHQ tips, antigen 100 nM. The procedure:
(§2) The bio-layer interferometry (BLI) method was used to determine the affinities of the antibodies, employing Octet Red384. Briefly, anti-human Fc-coated biosensor AHQ tips (ForteBio) were put into PBS with 0.1% w/v bovine serum albumin and 0.05% Tween-20 for a minimum of 10 min in the pre-wetting plate. The purified antibodies (100 nM in PBS with 0.1% bovine serum albumin and 0.05% Tween-20 (assay buffer)) were captured on AHQ biosensors (ForteBio) at a level of about 1 nm. The loaded biosensors were washed with an assay buffer to remove any unbound protein. Then, the association rates, dissociation rates and response were measured, using an antigen of 100 nM (in PBS with 0.1% bovine serum albumin and 0.05% Tween-20).

Assay [9] has as its target T2, human TrkA on CellSensor TrkA-NFAT-bla …. Briefly: FACS on cells expressing human TrkA (FIG. 4A).
Assay [10] has as its target T1, extracellular domain (ECD) of human …. The assay can be described thus: SPR (BIAcore T200), antibody on protein G chip, PHA 0.625-20 nM injected. Here is the method:
The binding kinetics and affinities of the humanized antibodies were determined using a BIAcoreT200™ SPR system. Approximately 30 RU of the humanized antibody was immobilized on a protein G sensor chip and serial 2-fold dilutions of the PHA (0.625-20 nM) in 1×HBS-EP+ buffer were injected over the antibody-bound surface at a flow rate of 30 μl/min.

Assay [11] shares this target. Briefly: BLI (Octet Red384), as in Example 4. Here is the method: as §2
Two rounds of humanizations were further performed. […] In the second round, many other variants were further constructed (including several mutations in the CDR sequences). Quickchange based site-directed mutagenesis or overlap PCR were performed to create expression plasmid of new versions of 2nd round humanized antibodies. All recombinant antibodies were expressed and purified as described in Example 1, then measured antigen binding affinity using BLI technology with the Octet Red384 instrument as mentioned above. To compare the functional activity of humanized antibodies with chimeric antibodies, NFAT assay was also performed.

Assay [12] deals with T2, human TrkA on CellSensor TrkA-NFAT-bla …. Briefly: cell-based or functional assay. The source holds these as a separate data set.

Read-outs that look alike come from different tables or passages of the source.

From patent US20240002516A1 (4B TECHNOLOGIES SUZHOU, published 2024) come the findings set out here.

By EC50 is commonly meant the concentration needed to bring the measured effect to its halfway point. Higher therefore signals lower potency in that assay. One may read the Kd as the equilibrium constant for the complex coming apart. A low value points to tighter binding. By koff is commonly meant a measure of how fast the partners let go of each other. As a reminder, the kon is a measure of how fast the partners come together. Lower therefore signals slow association.

T1 sequence (P04629 33-423): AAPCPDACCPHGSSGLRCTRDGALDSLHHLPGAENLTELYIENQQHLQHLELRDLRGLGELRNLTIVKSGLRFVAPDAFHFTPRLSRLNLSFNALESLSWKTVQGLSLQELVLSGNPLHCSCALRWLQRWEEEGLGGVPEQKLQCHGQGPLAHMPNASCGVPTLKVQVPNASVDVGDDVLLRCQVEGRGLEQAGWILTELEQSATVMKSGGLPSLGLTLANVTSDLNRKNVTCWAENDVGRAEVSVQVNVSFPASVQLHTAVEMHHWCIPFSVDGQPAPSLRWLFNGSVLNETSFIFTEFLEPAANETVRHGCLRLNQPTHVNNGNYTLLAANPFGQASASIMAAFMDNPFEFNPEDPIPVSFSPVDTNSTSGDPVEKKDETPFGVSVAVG

B1: muPHD49 (antibody, V domains shown)
VH: QVQLQQSGAELARPGASVKLSCKASGYTFSSYWMQWVKQRPGQGLEWIGAIYPGDDDTIYTQKFKGKATLTADKSSSTAYMQLSSLASEDSAVYYCARNYDYQAWFAYWGQGTLVTVSA
VL: QIVLTQSPALMSASPGEKVTMTCSASSSVSYMYWYQQKPRSSPKPWIYLTSNLASGVPARFSGSGSGTSYSLTISSMEAEDAATYYCQQWSSNPLTFGAGTKLELK
notes: Mouse hybridoma monoclonal antibody; also called muPHID49
As for B1, the results for the EC50 in assay [1] and in assay [5] were 1.07 nM and 0.473 µg/mL, respectively. Besides, the results for the Top in assay [1] and in assay [3] were 1.94 OD450 and 173000, respectively. For the same molecule, the “IC50 in NFAT assay” value in assay [2] came to 0.404 nM. For the same molecule, the “Top; inhibition of NGF-induced TrkA activation in TrkA-NFAT-bla CHO-K1 reporter cells” value (from here on “Top; inhibition”) in [4] was determined as 0.796 Response Ratio.

B2: muPHD50 (antibody, V domains shown)
VH: EVQLQQSGTVLARPGASVKMSCKASGYIFTSYWMHWVKQRPGQGLEWIGAIYPGDSDTNYNQKFKGKAKLTAVTSASTAYMELSSLTNEDSAVYYCTRYGNYAGYYHMDYWGQGTSVTVSS
VL: QIVLTQSPALMSASPGEKVTMTCSASSSVSYIYWYQQKPRSSPKPWIYLTSNLASGVPARFSGSGSGTSYSLTISSMEAEDAATYYCQQWSSNPLTFGAGTKLELK
notes: Mouse hybridoma monoclonal antibody; also called muPHID50
For B2, the EC50 in assay [1] worked out at 0.428 nM; in [5], 0.326 µg/mL. Moreover, the results for the Top in [1] and in assay [3] were 1.65 OD450 and 268000, respectively.

B3: control antibody pAb01 (antibody, V domains shown)
VH: EVQLVESGGGLVKPGGSLRLSCAASGFTFSGVSINWVRQAPGKGLEWVSSETTSSGTIYYADSVKGRFTISRDNAKNSLYLQMNSLRAEDTAVYYCARSYYYGMDVWGQGTTVTVS
VL: DIVMTQTPLSSPVTLGQPASISCRSSQSLVHRNGNTYLSWLQQRPGQPPRLLIYKISNRFSGVPDRFSGSGAGTDFTLKISRVEAEDVGVYYCMQARQFPLTFGGGTKVEIK
In the case of B3, the binding result in [6] is “binds”.

B4: PHD49-01 (humanized muPHD49) (antibody, human IgG4, V domains shown)
VH: QVQLVQSGAEVKKPGSSVKVSCKASGYTFSSYWMQWVRQAPGQGLEWIGAIYPGDDDTIYTQKFKGRATLTADKSTSTAYMELSSLRSEDTAVYYCARNYDYQAWFAYWGQGTLVTVSS
VL: DIQMTQSPSSLSASVGDRVTITCSASSSVSYMYWYQQKPGKAPKPWIYLTSNLASGVPSRFSGSGSGTDYTLTISSLQPEDFATYYCQQWSSNPLTFGQGTKLEIK
On to B4, for which, in [2], the “IC50 in NFAT assay” value was about 0.604 nM. In addition, the “Top; inhibition” value in assay [4] was 1.1 Response Ratio. The EC50 in assay [7] was about 0.198 µg/mL. In assay [8], the affinity, expressed as Kd, was 4.84 nM; the koff was 0.00098 s⁻¹; the association rate constant (kon) is 203000 M⁻¹ s⁻¹.

B5: PHD48-01 (humanized muPHD48) (antibody, human IgG4, V domains shown)
VH: QVQLVQSGAEVKKPGASVKVSCKASGYSFTTYWMHWVRQAPGQGLEWIGTIYPGNSDSSNNQKFKGRATLTADTSTSTAYMELSSLRSEDTAVYYCTRFYYEDWYFDVWGQGTMVTVSS
VL: DIQMTQSPSSLSASVGDRVTITCSASSSVSYMYWFQQKPGKAPKPWIYRTSNLASGVPSRFSGSGSGTDYTLTISSLQPEDFATYYCQQYHSYPPTFGGGTKVEIK
Take B5: in [9], the 50% effective concentration (EC50) was about 0.142 µg/mL. In assay [10], this molecule had a dissociation constant (Kd) of 2.34 nM, a koff of 0.000524 s⁻¹ and a kon of 224000 M⁻¹ s⁻¹. In addition, in assay [2], the “IC50 in NFAT antagonistic assay” value is about 0.345 nM. In assay [11], this molecule yielded an equilibrium dissociation constant (Kd) of 3.07 nM, an off-rate (koff) of 0.000634 s⁻¹ and an on-rate (kon) of 207000 M⁻¹ s⁻¹. Besides, the “Top; inhibition” value in [12] was determined as 1.02 Response Ratio. Also, in [8], binding was put at a Kd of 3.07 nM, the dissociation rate constant (koff) stood at 0.000634 s⁻¹ and the kon was 207000 M⁻¹ s⁻¹.

B6: muPHD48 (antibody, V domains shown)
VH: EVQLQQSGTVLARPGASVKMSCKASGYSFTTYWMHWVKQRPGQGLEWIGTIYPGNSDSSNNQKFKGKAKLTAVTSASTAYMELSSLTNEDSAVYYCTRFYYEDWYFDVWGAGTTVTVSS
VL: QIVLTQSPAIMSASPGEKVTISCSASSSVSYMYWFQQKPGSSPKPWIYRTSNLASGVPARFSGSGSGTSYSLTISSMEAEDAATYYCQQYHSYPPTFGGGTKLEIK
notes: Mouse hybridoma monoclonal antibody
With B6, the concentration for a half-maximal effect (EC50) in assay [1] was determined as 0.37 nM; in [5], 0.341 µg/mL. The Top in assay [1] is 2.16 OD450; in assay [3], 239000. In addition, in assay [2], the “IC50 in NFAT antagonistic assay” value stood at 0.411 nM. In assay [12], the “Top; inhibition” value was determined as 0.862 Response Ratio.

B7: chi-PHD48 (the chimeric antibody derived from muPHD48) (antibody, V domains shown)
VH: EVQLQQSGTVLARPGASVKMSCKASGYSFTTYWMHWVKQRPGQGLEWIGTIYPGNSDSSNNQKFKGKAKLTAVTSASTAYMELSSLTNEDSAVYYCTRFYYEDWYFDVWGAGTTVTVSS
VL: QIVLTQSPAIMSASPGEKVTISCSASSSVSYMYWFQQKPGSSPKPWIYRTSNLASGVPARFSGSGSGTSYSLTISSMEAEDAATYYCQQYHSYPPTFGGGTKLEIK
notes: Chimeric: VH in the pCDNA3.4-hIgG4 vector and VL in the pCDNA3.4-hKappa vector (human IgG4 / human kappa constant regions)
Regarding B7, in assay [9], the concentration for a half-maximal effect (EC50) worked out at 0.112 µg/mL. In assay [10], this molecule had an equilibrium dissociation constant (Kd) of 4.06 nM, a koff of 0.00069 s⁻¹ and an on-rate (kon) of 170000 M⁻¹ s⁻¹. For the same molecule, in [11], the affinity, expressed as Kd, was 2.8 nM; the koff amounted to 0.000761 s⁻¹; the on-rate constant (kon) was found to be 272000 M⁻¹ s⁻¹. Moreover, in [12], the “IC50; inhibition of NGF-induced TrkA activation in TrkA-NFAT-bla CHO-K1 reporter cells” value was found to be 1.12 nM and the “Top; inhibition” value is 1.1 Response Ratio. In [8], the affinity, expressed as Kd, was 5.33 nM; the off-rate (koff) was 0.00114 s⁻¹; the kon is 214000 M⁻¹ s⁻¹.
